Data on one substance can be found in article PMC9666535.

This experiment deals with PCNA N107C labeled with Cy5 (human) (UniProt P12004). The experiment is described as follows: native gel or EMSA; protein-protein EMSA in solution, no DNA: 1 nM PCNA-Cy5 with increasing Polδ Exo^− or Lig1, 20 min at RT, 6% non-denaturing TBE-PAGE; bound PCNA fitted to a quadratic isotherm. On the technique in general: In EMSA bound probe runs differently from free probe, usually more slowly.
Sequence of PCNA N107C labeled with Cy5 (human) (P12004 whole entry N107C): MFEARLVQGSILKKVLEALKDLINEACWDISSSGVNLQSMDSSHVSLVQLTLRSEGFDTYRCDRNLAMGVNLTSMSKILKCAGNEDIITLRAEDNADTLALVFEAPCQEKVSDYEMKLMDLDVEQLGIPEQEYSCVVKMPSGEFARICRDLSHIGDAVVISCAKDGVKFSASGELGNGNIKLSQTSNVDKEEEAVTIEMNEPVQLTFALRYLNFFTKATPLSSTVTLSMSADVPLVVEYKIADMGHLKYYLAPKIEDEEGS

Regarding “Polδ Exo^− (D515V in p125) (from UniProt P28340 1-1107; Q9HCU8 1-107) (complex)”, the Kd (usually a measure of binding affinity in units of concentration) came to 15 nM.
